This series in a line: label from the status in PepcDB records.
In the case of “MEIKRFGRIREVIPLPPLTEIQVESYRRALQADVPPEKRENVGIQAAFRETFPIEEEDKGKGGLVLDFLEYRLGEPPFPQDECREKDLTYQAPLYARLQLIHKDTGLIKEDEVFLGHIPLMTEDGSFIINGADRVIVSQIHRSPGVYFTPDPARPGRYIASIIPLPKRGPWIDLEVEPNGVVSMKVNKRKFPLVLLLRVLGYDQETLARELGAYGELVQGLMDESVFAMRPEEALIRLFTLLRPGDPPKRDKAVAYVYGLIADPRRYDLGEAGRYKAEEKLGIRLSGRTLARFEDGEFKDEVFLPTLRYLFALTAGVPGHEVDDIDHLGNRRIRTVGELMTDQFRVGLARLARGVRERMLMGSEDSLTPAKLVNSRPLEAAIREFFSRSQLSQFKDETNPLSSLRHKRRISALGPGGLTRERAGFDVRDVHRTHYGRICPVETPEGANIGLITSLAAYARVDELGFIRTPYRRVVGGVVTDEVVYMTATEEDRYTIAQANTPLEGNRIAAERVVARRKGEPVIVSPEEVEFMDVSPKQVFSVNTNLIPFLEHDDANRALMGSNMQTQAVPLIRAQAPVVMTGLEERVVRDSLAALYAEEDGEVAKVDGNRIVVRYEDGRLVEYPLRRFYRSNQGTALDQRPRVVVGQRVRKGDLLADGPASENGFLALGQNVLVAIMPFDGYNFEDAIVISEELLKRDFYTSIHIERYEIEARDTKLGPERITRDIPHLSEAALRDLDEEGVVRIGAEVKPGDILVGRTSFKGESEPTPEERLLRSIFGEKARDVKDTSLRVPPGEGGIVVRTVRLRRGDPGVELKPGVREVVRVYVAQKRKLQVGDKLANRHGNKGVVAKILPVEDMPHLPDGTPVDVILNPLGVPSRMNLGQILETHLGLAGYFLGQRYISPIFDGAKEPEIKELLAQAFEVYFGKRKGEGFGVDKREVEVLRRAEKLGLVTPGKTPEEQLKELFLQGKVVLYDGRTGEPIEGPIVVGQMFIMKLYHMVEDKMHARSTGPYSLITQQPLGGKAQFGGQRFGEMEVWALEAYGAAHTLQEMLTLKSDDIEGRNAAYEAIIKGEDVPEPSVPESFRVLVKELQALALDVQTLDEKDNPVDIFEGLASKR”, the protein production entry is on record as “not failed”. In the case of “MTSVSGCGSVSLITNRSAFLGNGLQHRAVFLKPWSSSSLQSRSMVVEAKTKTSSEDRIARHSRIRKKVNGTTERPRLCVFRSNKHLYVQVIDDTKMHTLASASTKQKPISEEFDYTSGPTIEVAKKVGEVIAKSCLEKGITKVAFDRGGYPYHGRIEALAAAAREHGLQF”, the protein production result is on record as “failed”. Under “MSLSIVRIDAEDRWSDVVIYNNTLWYTGVPENLDADAFEQTANTLAQIDAVLEKQGSSKSRILDATIFLSDKADFAAMNKAWDAWVVAGHAPVRCTVQAGLMNPKYKVEIKIVAAVEGHHHHHH” stands “not failed”; under “MMNSDRNKYRKENDMGKQVRDKEVQEIMDYIMNKGEDSEERVYKLFKMNGVIYEIACNISRNQNSETTQNQIRKFYDYTIKINSKDEKKAKIKLAMMMPQIYYAIQRKVISSDSPFVKFLEDSIDKLNKTEDFENAFNRFLNVFQAIVAYSKKSRSDRNE”, “failed”. Under “MDWEERENPKRLVKTFAFPNFREALDFANRVGALAERENHHPRLTVEWGRVTVEWWTHSAGGVTEKDREMARLTDALLQR” stands “not failed”; under “MTKPLILASQSPRRKELLDLLQLPYSIIVSEVEEKLNRNFSPEENVQWLAKQKAKAVADLHPHAIVIGADTMVCLDGECLGKPQDQEEAASMLRRLSGRSHSVITAVSIQAENHSETFYDKTEVAFWSLSEEEIWTYIETKEPMDKAGAYGIQGRGALFVKKIDGDYYSVMGLPISKTMRALRHFDIRA”, “not failed”. For “MKLLLVGEVRDGRVTAETAELFGFAACFSAEVSMVLAGSTDDLPSFEGKLYRADGVNAFDLACHKRLVLAAVEREQPDAVVFLHSSHGWELAPRVAFAMQSAQVSGVVGLDDGGYVVESCNGKMRRTVKPLTDRVVLTLQLGAFDAPAMAGIPEVTALDVEPDSTIEFLDCVQPERGIDLTRAGVIVSAGRGVGSAERVELVRALADALGGEVGASRPVVDAGWLERARQVGSSGQSVSPALYVACGISGAIQHLAGMKGSGFVLAINTDRDTPITSVADVLAVADVAEFLSALTAAIRARR” the value was “failed”; for “MSTSDSCYNTGYILRICAIAALGGILFGYDTAVISGAIGSLTSYFHLSPAETGWAVSCVVVGCVIGSFSAGYLSKRFGRKKSLMVSALLFTISAVGTSLSYTFTHFVIYRIIGGLAVGLAATVSPMYMSEVSPKNMRGRALSMQQFAIVFGQILIFYVNYKIASIAADTWLIELGWRYMFAAGIIPCILFCILVFLIPESPRWMMMIGREEETLKILTKISNEEHARHLLADIKTSLQNDQLNAHQKLNYRDGNVRFILILGCMIAMLQQVTGVNVMMYYAPIVLKDVTGSAQEALFQTIWIGVIQLIGSIIGAMIMDKMGRLSLMRKGTIGSIIGLLLTSWALYSQATGYFALFGMLFFMIFYALSWGVGAWVLISEIFPNRMRSQGMSISVGFMWMANFLVSQFFPMINENPYLLSHFHGAFPMWIFAICCIFSYFFICRYLPETKGISLEKMESVVLAKRRKKLQPIQTERYSD”, “failed”; for “MWHYLFLAIYVTMIIGIATVTKKRIKGVSDFLLGGRNVNPWMSAFSYGTAYFSAVIFIGFAGKMGWSFGIPTMWIVVGNTIIGSFLAWQVLGKKTREMTQRLGASTMPSFLEKRYKSKNLESLTAFIIFFFLVPYSASIYKGLNFLFEGFGISPMNAYILMAALTAIYLYFGGFIAATLADFVQGCIMVIGVLLMVFFLSSNPEVGGFSGMLSNLSSIDPILVSPISEASFIPIIGLALLTSIGSWGLPQMIHKFYTIKSEKAAVSAKWVSTAFAFIITFGAAYIGTVSRLFYPDAASKVAAGLTSPDMIVPKIMEIALPDWVAALILVLVISASMSTLASLVLASSSVVSIDFVKGRLKPDLSDKNTMILMRLLCVLFVALSFVLAIVPNSYVLSLMALSWGLVSGCLLAPYFLGLYWKRTTKEGVWAGITSALAIMLGGACYFGVNSVYMPAVGSLAMIAPIFVVMAVSLITKPFESEHIDYIFNKK”, “failed”. As for “MPVSLYSGKVALRLLLLQLVTFALLSAVFSLNSVNAAASALGGGLAAWLPNVLFVLFALRHQSHKPADGRVAWSFAIGEALKVFITIALLVVALGVFKAAFFPLGLTYLSVLVMQIVAPIVINRYRN”, the protein production result is “failed”. Regarding “MVWHYSNIMHKKSKAQLQDYFKDLTAIGNASSEQMEANRDGIQGETEENINPPPQNPKKRLSLPNLSSPSLAAEAENLESAGQPGSDYLSNSFGQANKANVAVAPVNSDYIAPEKLEDQPGDFFGGKRWFWLGGILVLLVGGTALTLPKALEMVNGWRQEAQLKAYEQEQHQDSEVLRLALLPPDQRRSKLEAIANQEVLSLERSRARFLLAGDLLAEFEGGPALRVLEGLEVQYPVLAPYILLMRGRGYQLSNENDQAEATWQDILDQYPDSPVVVNALENLGSLDETYWQQAIADHPGHPRTLAILHQQLESEPNALEIQRQILQNHPTDGRTAAVINSLTANRQGELTPEDWQAMGDNFWHRRIYNQAIAPYEKAPSNARNLYRLARAQQISKLDNEAKENYRQLIATYPDSEETALALRRLAELVPPREGVQYLQQLEQQFPDQGASALAARIDLLAKFDANQAQQARQALLQKYPNSDAAADYRWRQAQEFAKAGNYTEAWRWAKEIANQNPQSDVTPKAIFWIGKWAQQLGRSADSKAAFETVLAKYPQSYYAWRSAVLLGWQVGDFNSVRFLNPPVTVPDQRPLPPAGSPTFRELYRLAQDQEAIELFNAEVRARAEGEATPELTVNEGFTEALLKLTQQEYLQGINQVLNLRNPEDPEQRKQWEELRSTRDYWQTLFPFPYQQLIFEWSEKRQVNPFLVTALIRQESRFEKNIQSPVGATGLMQIMPATAEWIAPQIGLKEYSLTDPTDNVNMGTWYFDHTHKTYNNNSALAVASYNAGPGNVAKWLQEFNNADPDLFVERIPFAETKGYVESVFGNYWNYLRIYDPDVEKLMGQVGKN”, the protein production result is listed as “failed”. Under “MSVQLKCDAVNCVYNRSHLCSAEEIEVQGGETTGGDATFCGTFSSKSLGNFVSSLGNMNYSGSLKQAVSAEPIMDPKVHCNAVNCTYNDQRYCHADQVEIRNEVSHTAEELEHHHHHH” stands “not failed”; under “MWITGASGGLGERIAYLCAAEGAHVLLSARREDRLIEIKRKITEEWSGQCEIFPLDVGRLEDIARVRDQIGSIDVLINNAGFGIFETVLDSTLDDMKAMFDVNVFGLIACTKAVLPQMLEQKKGHIINIASQAGKIATPKSSLYSATKHAVLGYSNALRMELSGTGIYVTTVNPGPIQTDFFSIADKGGDYAKNVGRWMLDPDDVAAQITAAIFTKKREINLPRLMNAGTKLYQLFPALVEKLAGR”, “failed”.

The values are drawn from a protein production outcome set (Wang et al. 2014).
